The record followed here is CN110840830A (BEIJING DONGFANG BIOTECH CO LTD, dated 2020).

The target of assay [1] is T1, CTLA-4 (antigen coated on ELISA plates and immunotubes) (UniProt P16410 36-161, limits assumed).
T1 construct: also called CTLA-4抗原; 细胞毒性T淋巴细胞相关抗原4
T1 sequence (looked up): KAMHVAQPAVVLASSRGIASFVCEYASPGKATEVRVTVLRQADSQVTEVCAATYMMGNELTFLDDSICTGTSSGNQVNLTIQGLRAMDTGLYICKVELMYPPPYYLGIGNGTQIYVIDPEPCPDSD
The experiment in a line: ELISA, full antibody on coated CTLA-4, anti-human IgG-HRP.

Assay [2] concerns the target T2, 细胞表面CTLA-4抗原 (CTLA-4 on cells) (UniProt P16410 36-223, limits assumed).
T2 construct: whole, on cells; Also used as the target of the mixed lymphocyte reaction rows, where CTLA-4 stands on primary CD4+ T cells; also called 细胞表达的CTLA-4抗原; 过表达CTLA-4抗原的CHO细胞
T2 sequence (looked up): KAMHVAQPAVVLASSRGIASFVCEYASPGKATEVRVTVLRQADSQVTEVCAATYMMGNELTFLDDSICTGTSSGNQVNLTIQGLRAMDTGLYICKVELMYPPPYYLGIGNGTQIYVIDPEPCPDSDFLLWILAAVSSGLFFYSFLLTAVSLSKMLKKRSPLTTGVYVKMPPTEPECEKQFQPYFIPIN
The assay can be described thus: flow cytometry on CHO cells over-expressing CTLA-4, Alexa488 anti-human IgG Fc. On the technique in general: A flow cytometer gives signals particle by particle.

The target of assay [3] is T2, 细胞表面CTLA-4抗原 (CTLA-4 on cells). The assay can be described thus: cell-based or functional assay.

B1: 全抗N-2 (antibody, human IgG1, kappa, V domains shown)
VH: QVQLVESGGGVVQPGRSLRLSCAASGFTFSSIFKRWVRQAPGKGLEWVTFISYDGLDHINGDSVKGRFTISRDNSKNTLYLQMNSLRAEDTAIYYCARRYRWWGKAMDYWGQGTLVTVSS
VL: DIVMTQSPLSLPVTPGEPASISCKSSQSVIDSKGYTYLGWYLQKPGQSPQLLIYLGTQKSSGVPDRFSGSGSGTDFTLKISRVEAEDVGVYYCLQRGHIPITFGQGTKLEIKR
notes: also called 抗CTLA-4全抗体N-2
B1: the values for the EC50 in assay [1] and in assay [2] were 0.11 µg/mL and 0.00895 µg/mL, respectively. For the same molecule, in assay [3], the “混合淋巴细胞反应(MLR), CD4+ T细胞增殖 (cck8), EC50” value was found to be 8.31 nM.

B2: 全抗N-8 (antibody, human IgG1, kappa, V domains shown)
VH: QVQLVESGGGVVQPGRSLRLSCAASGFTFSGFSICWVRQAPGKGLEWVTFISYDGLLFLIADSVKGRFTISRDNSKNTLYLQMNSLRAEDTAIYYCARRYRWWGKAMDYWGQGTLVTVSS
VL: DIVMTQSPLSLPVTPGEPASISCRSSQTVFDSHGQTYLQWYLQKPGQSPQLLIYGASRQVSGVPDRFSGSGSGTDFTLKISRVEAEDVGVYYCMQVWHLPITFGQGTKLEIKR
notes: also called 抗CTLA-4全抗体N-8
For B2, the results for the half-maximal effective concentration (EC50) in assay [1] and in assay [2] were 0.164 µg/mL and 0.00649 µg/mL, respectively. Further, the “混合淋巴细胞反应(MLR), CD4+ T细胞增殖 (cck8), EC50” value in assay [3] was determined as 7.32 nM.

B3: 全抗N-5 (antibody, human IgG1, kappa, V domains shown)
VH: QVQLVESGGGVVQPGRSLRLSCAASGFTFSGFFNRWVRQAPGKGLEWVTFISYDALKDFYADSVKGRFTISRDNSKNTLYLQMNSLRAEDTAIYYCARRYRWWGKAMDYWGPGTLVTVSS
VL: DIVMTQSPLSLPVTPGEPASISCRSSQTVFDSHGQTYLQWYLQKPGQSPQLLIYGASRQVSGVPDRFSGSGSGTDFTLKISRVEAEDVGVYYCMQVWHLPITFGQGTKLEIKR
notes: also called 抗CTLA-4全抗体N-5; N-5的全抗体
With B3, the results for the concentration giving a half-maximal response (EC50) in assay [1] and in assay [2] were 0.0689 µg/mL and 0.00612 µg/mL, respectively. The “混合淋巴细胞反应(MLR), CD4+ T细胞增殖 (cck8), EC50” value in assay [3] was determined as 4.95 nM.

B4: 全抗N-6 (antibody, human IgG1, kappa, V domains shown)
VH: QVQLVESGGGVVQPGRSLRLSCAASGFTFSSNTLRWVRQAPGKGLEWVTFISYDSLFLDQGDSVKGRFTISRDNSKNTLYLQMNSLRAEDTAIYYCARRYRWWGKAMDYWGQGTLVTVSS
VL: DIVMTQSPLSLPVTPGEPASISCRSSQTVFDSHGQTYLQWYLQKPGQSPQLLIYGASRQVSGVPDRFSGSGSGTDFTLKISRVEAEDVGVYYCMQVWHLPITFGQGTKLEIKR
notes: also called 抗CTLA-4全抗体N-6
B4: the results for the EC50 in assay [1] and in assay [2] were 0.127 µg/mL and 0.00705 µg/mL, respectively. Moreover, the “混合淋巴细胞反应(MLR), CD4+ T细胞增殖 (cck8), EC50” value in assay [3] was determined as 6.67 nM.

B5: 全抗N-3 (antibody, human IgG1, kappa, V domains shown)
VH: QVQLVESGGGVVQPGRSLRLSCAASGFTFSGIFSSWVRQAPGKGLEWVTFISYDSLKQKDGDSVKGRFTISRDNSKNTLYLQMNSLRAEDTAIYYCARRYRWWGKAMDYWGQGTLVTVSS
VL: DIVMTQSPLSLPVTPGEPASISCKSSQSVIDSKGYTYLGWYLQKPGQSPQLLIYLGTQKSSGVPDRFSGSGSGTDFTLKISRVEAEDVGVYYCLQRGHIPITFGQGTKLEIKR
notes: also called 抗CTLA-4全抗体N-3
B5: the EC50 (as a rule, the concentration giving half of the maximal effect) in assay [1] turned out to be 0.264 µg/mL; in assay [2] it was 0.00896 µg/mL. Moreover, the “混合淋巴细胞反应(MLR), CD4+ T细胞增殖 (cck8), EC50” value in assay [3] came out at 14.2 nM.

B6: 全抗N-7 (antibody, human IgG1, kappa, V domains shown)
VH: QVQLVESGGGVVQPGRSLRLSCAASGFTFSGIYCNWVRQAPGKGLEWVTFISYDSILNVIADSVKGRFTISRDNSKNTLYLQMNSLRAEDTAIYYCARRYRWWGKAMDYWGQGTLVTVSS
VL: DIVMTQSPLSLPVTPGEPASISCRSSQTVFDSHGQTYLQWYLQKPGQSPQLLIYGASRQVSGVPDRFSGSGSGTDFTLKISRVEAEDVGVYYCMQVWHLPITFGQGTKLEIKR
notes: also called 抗CTLA-4全抗体N-7
Take B6: the EC50 in assay [1] stood at 0.0865 µg/mL; in assay [2] it was 0.00792 µg/mL. Besides, the “混合淋巴细胞反应(MLR), CD4+ T细胞增殖 (cck8), EC50” value in assay [3] is 6.31 nM.

B7: 全抗N-1 (antibody, human IgG1, kappa, V domains shown)
VH: QVQLVESGGGVVQPGRSLRLSCAASGFTFSGYNGNWVRQAPGKGLEWVTFISYDGLNDVKADSVKGRFTISRDNSKNTLYLQMNSLRAEDTAIYYCARRYRWWGKAMDYWGQGTLVTVSS
VL: DIVMTQSPLSLPVTPGEPASISCKSSQSVIDSKGYTYLGWYLQKPGQSPQLLIYLGTQKSSGVPDRFSGSGSGTDFTLKISRVEAEDVGVYYCLQRGHIPITFGQGTKLEIKR
notes: also called 抗CTLA-4全抗体N-1
Consider B7, for which the EC50 was 0.163 µg/mL in assay [1] and 0.00709 µg/mL in assay [2]. Further, the “混合淋巴细胞反应(MLR), CD4+ T细胞增殖 (cck8), EC50” value in assay [3] worked out at 7.34 nM.

B8: 全抗N-4 (antibody, human IgG1, kappa, V domains shown)
VH: QVQLVESGGGVVQPGRSLRLSCAASGFTFSAFYNPWVRQAPGKGLEWVTFISYDGVYFHFGDSVKGRFTISRDNSKNTLYLQMNSLRAEDTAIYYCARRYRWWGKAMDYWGQGTLVTVSS
VL: DIVMTQSPLSLPVTPGEPASISCKSSQSVIDSKGYTYLGWYLQKPGQSPQLLIYLGTQKSSGVPDRFSGSGSGTDFTLKISRVEAEDVGVYYCLQRGHIPITFGQGTKLEIKR
notes: also called 抗CTLA-4全抗体N-4
B8: the figures for the EC50 in assay [1] and in assay [2] were 0.0922 µg/mL and 0.0111 µg/mL, respectively. In addition, in assay [3], the “混合淋巴细胞反应(MLR), CD4+ T细胞增殖 (cck8), EC50” value was 15.4 nM.
